For 25 sequences, Kd results are on record in the Immune Epitope Database (IEDB).

Where only a bound is given, the exact number is not on record here.

The target of one assay is HLA-B*45:01. Kind of assay: IEDB peptide-MHC binding, purified MHC/competitive/radioactivity; filed as Kd, often an IC50 or EC50 that approximates it; ≥ and ≤ were set here for values at or beyond the usual limits of such assays.
For another assay, the target named is HLA-B*44:03. The description is as above.
A further assay has as its target HLA-B*44:02. The description is as above.
In assay [1] the target is HLA-B*18:01. Described as above.
The target in a further assay is HLA-B*40:01. Described as above.
Another assay concerns the target HLA-B*40:02. The assay is described as above.
In assay [2] the target is HLA-B*15:17. Kind of assay: IEDB peptide-MHC binding, purified MHC/direct/fluorescence; filed as Kd, often an IC50 or EC50 that approximates it; ≥ and ≤ were set here for values at or beyond the usual limits of such assays.
In another assay the target is HLA-B*58:01. The description is as above.
The target of assay [3] is HLA-B*57:01. The assay is described as above.
The next assay concerns the target HLA-A*02:06. Kind of assay: IEDB peptide-MHC binding, purified MHC/competitive/radioactivity; filed as Kd, often an IC50 or EC50 that approximates it; ≥ and ≤ were set here for values at or beyond the usual limits of such assays. Conditions: source organism: Dengue virus 3 Martinique/1243/1999.
Another assay has as its target HLA-A*32:01. The assay is described as above. The note with it: source organism: Dengue virus 3 Martinique/1243/1999.
The next assay deals with HLA-A*03:01. Kind of assay: IEDB peptide-MHC binding, purified MHC/competitive/fluorescence; filed as Kd, often an IC50 or EC50 that approximates it; ≥ and ≤ were set here for values at or beyond the usual limits of such assays.
In assay [4] the target is HLA-A*02:01. The assay is described as above.
Assay [5] concerns the target HLA-A*69:01. Described as above. The note with it: source organism: Homo sapiens.
The target of another assay is HLA-B*46:01. The assay is described as above. The note with it: source organism: Homo sapiens.
The target in assay [6] is HLA-B*18:01. Described as above. The note with it: source organism: Homo sapiens.
For the next assay, the target named is HLA-B*27:03. The assay is described as above. The note with it: source organism: Homo sapiens.
The next assay concerns the target HLA-A*26:01. The assay is described as above. Conditions: source organism: Homo sapiens.
The target of another assay is HLA-B*51:01. The assay is described as above. Conditions: source organism: Homo sapiens.
A further assay addresses HLA-B*39:01. The description is as above. Conditions: source organism: Homo sapiens.
In assay [7] the target is HLA-B*57:01. Described as above. The note with it: source organism: Homo sapiens.
The target in another assay is HLA-B*15:01. Described as above. Conditions: source organism: Homo sapiens.
In assay [8] the target is HLA-B*15:17. The assay is described as above. The note with it: source organism: Homo sapiens.
The target in assay [9] is HLA-A*02:01. Put plainly: IEDB peptide-MHC binding, purified MHC/direct/fluorescence; filed as Kd, often an IC50 or EC50 that approximates it; ≥ and ≤ were set here for values at or beyond the usual limits of such assays. Conditions: source organism: Homo sapiens.
The target in assay [10] is HLA-A*69:01. Described as above. The note with it: source organism: Mycobacterium tuberculosis.
A further assay deals with HLA-B*08:01. The description is as above.
The next assay has as its target HLA-B*08:02. The assay is described as above.
The target in a further assay is HLA-B*07:02. The description is as above. Conditions: source organism: Mycobacterium tuberculosis str. Haarlem.
Where [11] appears, read: source organism: Mammarenavirus lassaense.
The mark [12] stands for this setting: source organism: Vibrio parahaemolyticus AQ3810.
Where [13] appears, read: source organism: SARS coronavirus Tor2.
Where [14] appears, read: source organism: dengue virus type 4.
The mark [15] stands for this setting: source organism: Giardia lamblia ATCC 50803.
Where [16] appears, read: source organism: Mammarenavirus machupoense.
[17] abbreviates: source organism: Mammarenavirus brazilense.
Where [18] appears, read: source organism: Mammarenavirus whitewaterense.
[19] abbreviates: source organism: Mammarenavirus juninense.
[20] abbreviates: source organism: Mycobacterium tuberculosis str. Haarlem.
Where [21] appears, read: source organism: Orthonairovirus haemorrhagiae.
The mark [22] stands for this setting: source organism: Camelpox virus M-96.

For KEAYCQEFLL, the Kd was 6680 nM with HLA-B*45:01 (setting [11]); 5.01 µM with HLA-B*44:03 (setting [11]); 1260 nM with HLA-B*44:02 (setting [11]); at least 45.9 µM with HLA-B*18:01 [1] (setting [11]); 10.2 µM in the assay with HLA-B*40:01 (setting [11]); 33.7 nM with HLA-B*40:02 (setting [11]).
Regarding QTWKPDDVL, the figures for the Kd with HLA-B*15:17 [2] (setting [12]), with HLA-B*58:01 (source organism: Vibrio parahaemolyticus) and with HLA-B*57:01 [3] (setting [12]) were 730 nM, at least 20000 nM and at least 20000 nM, respectively.
As to TEHSWNADL, the Kd with HLA-B*45:01 (setting [13]) stood at 331 nM; with HLA-B*44:03 (setting [13]) it was 0.137 µM; with HLA-B*44:02 (setting [13]), 125 nM; with HLA-B*18:01 [1] (setting [13]), 8.39 µM; with HLA-B*40:01 (setting [13]), 0.034 µM; with HLA-B*40:02 (setting [13]) it was 132 nM.
As for SEGVPDLLV, the Kd with HLA-B*45:01 (setting [13]) was 13900 nM; with HLA-B*44:03 (setting [13]), at least 20.9 µM; with HLA-B*44:02 (setting [13]), at least 37100 nM; with HLA-B*18:01 [1] (setting [13]), at least 77.5 µM; with HLA-B*40:01 (setting [13]) it was at least 29.1 µM; with HLA-B*40:02 (setting [13]), at least 37000 nM.
On to KAYAQMWSL, for which the Kd with HLA-A*02:06 amounted to 27.2 nM; with HLA-A*32:01, 24.8 nM; in the assay with HLA-B*15:17 [2] (setting [14]), 1.3 nM; with HLA-B*57:01 [3] (setting [14]) it was 10.1 nM.
On to TEAFEKMVSL, for which the Kd is 4460 nM with HLA-B*45:01 (setting [13]); 5.74 µM with HLA-B*44:03 (setting [13]); 1920 nM with HLA-B*44:02 (setting [13]); 1.55 µM with HLA-B*18:01 [1] (setting [13]); 0.00352 µM with HLA-B*40:01 (setting [13]); 34.7 nM with HLA-B*40:02 (setting [13]).
For GETALALLL, the Kd in the assay with HLA-B*45:01 (setting [13]) was 448 nM; in the assay with HLA-B*44:03 (setting [13]) it was 0.0132 µM; in the assay with HLA-B*44:02 (setting [13]), 31.4 nM; in the assay with HLA-B*18:01 [1] (setting [13]) it was at least 22.7 µM; in the assay with HLA-B*40:01 (setting [13]) it was 0.00122 µM; in the assay with HLA-B*40:02 (setting [13]), 7.78 nM.
In the assay with HLA-A*03:01 (source organism: Entamoeba dispar SAW760), RWFFRPLRK yielded a Kd of 125 nM.
Take VSDFRKEFY: the Kd with HLA-A*02:01 [4] (source organism: Homo sapiens), with HLA-A*69:01 [5], with HLA-B*46:01, in the assay with HLA-B*18:01 [6], with HLA-B*27:03 and with HLA-A*26:01 was at least 20 µM throughout. The Kd in the assay with HLA-B*51:01, with HLA-B*39:01, with HLA-B*57:01 [7] and with HLA-B*15:01 was at least 20 µM in each case.
For LASSSYEQF, the dissociation constant Kd with HLA-B*15:17 [2] (setting [15]) came to 21.8 nM; with HLA-B*58:01 (setting [15]), 36.5 nM; with HLA-B*57:01 [3] (setting [15]), 188 nM.
In turn, FSFGDYFKH registered a Kd with HLA-A*03:01 (source organism: Escherichia coli O157:H7 str. Sakai) of at least 20000 nM.
Consider VEYYPLLFIT, for which the Kd with HLA-B*45:01 (setting [13]) is 568 nM; with HLA-B*44:03 (setting [13]), 8.31 µM; in the assay with HLA-B*44:02 (setting [13]) it was at least 62000 nM; with HLA-B*18:01 [1] (setting [13]), 8.28 µM; with HLA-B*40:01 (setting [13]) it was 5.12 µM; with HLA-B*40:02 (setting [13]), 12.6 nM.
For EEPAALLPL, the Kd was at least 23400 nM with HLA-B*45:01 (setting [16]); at least 41.2 µM with HLA-B*44:03 (setting [16]); at least 39900 nM with HLA-B*44:02 (setting [16]); 5.64 µM with HLA-B*18:01 [1] (setting [16]); 7.11 µM with HLA-B*40:01 (setting [16]); 57.1 nM with HLA-B*40:02 (setting [16]).
In the case of REMLAHAEET, the Kd is 151 nM with HLA-B*45:01 (setting [13]); 0.228 µM in the assay with HLA-B*44:03 (setting [13]); 895 nM with HLA-B*44:02 (setting [13]); 1.03 µM with HLA-B*18:01 [1] (setting [13]); 0.922 µM with HLA-B*40:01 (setting [13]); 68 nM with HLA-B*40:02 (setting [13]).
For VLIRRCHYL, the Kd with HLA-A*69:01 [5], in the assay with HLA-B*15:17 [8], with HLA-B*46:01, with HLA-B*18:01 [6], with HLA-B*27:03 and with HLA-A*26:01 was at least 20 µM throughout. Also, the Kd with HLA-B*51:01 was at least 20 µM; in the assay with HLA-B*39:01 it was at least 20 µM; with HLA-B*57:01 [7], at least 20 µM; with HLA-B*15:01 it was at least 20 µM; in the assay with HLA-A*02:01 [9] it was 1.5 nM.
Sequence QLAFFVAGK gave a Kd in the assay with HLA-A*03:01 (source organism: Escherichia coli K-12) of 12.8 nM.
Take VELKHFFFA: the Kd was 15.8 nM in the assay with HLA-B*45:01 (setting [13]); 2.63 µM in the assay with HLA-B*44:03 (setting [13]); 15600 nM with HLA-B*44:02 (setting [13]); 1.71 µM with HLA-B*18:01 [1] (setting [13]); at least 29.8 µM in the assay with HLA-B*40:01 (setting [13]); 103 nM in the assay with HLA-B*40:02 (setting [13]).
With PDVGVLFGL, the Kd is at least 25100 nM with HLA-B*45:01 (setting [16]); at least 78.1 µM with HLA-B*44:03 (setting [16]); at least 77900 nM in the assay with HLA-B*44:02 (setting [16]); at least 44.1 µM with HLA-B*18:01 [1] (setting [16]); at least 76.1 µM with HLA-B*40:01 (setting [16]); at least 22800 nM with HLA-B*40:02 (setting [16]).
PEDQGNPIVL: the Kd with HLA-B*45:01 (setting [17]) was at least 70000 nM; with HLA-B*44:03 (setting [17]), at least 70.1 µM; with HLA-B*44:02 (setting [17]) it was at least 70200 nM; in the assay with HLA-B*18:01 [1] (setting [17]), at least 39.3 µM; with HLA-B*40:01 (setting [17]), at least 30.6 µM; with HLA-B*40:02 (setting [17]), 10500 nM.
With AEQSRIFEEL, the Kd with HLA-B*45:01 (setting [18]) was 206 nM; with HLA-B*44:03 (setting [18]), 0.43 µM; with HLA-B*44:02 (setting [18]), 57.4 nM; with HLA-B*18:01 [1] (setting [18]), at least 20.8 µM; with HLA-B*40:01 (setting [18]), 10.2 µM; in the assay with HLA-B*40:02 (setting [18]), 16.8 nM.
In the case of HDLPLLCTL, the Kd with HLA-B*45:01 (setting [19]) is at least 74600 nM; in the assay with HLA-B*44:03 (setting [19]) it was 19.1 µM; in the assay with HLA-B*44:02 (setting [19]), 9820 nM; with HLA-B*18:01 [1] (setting [19]), 1.71 µM; in the assay with HLA-B*40:01 (setting [19]) it was 16.1 µM; in the assay with HLA-B*40:02 (setting [19]), 8.52 nM.
Consider LPAQLTATA, for which the Kd was 184 nM in the assay with HLA-A*69:01 [10], at least 20000 nM in the assay with HLA-B*08:01 (setting [20]), at least 20000 nM in the assay with HLA-B*08:02 (setting [20]) and 441 nM with HLA-B*07:02.
RVDEIILFH gave a Kd with HLA-A*03:01 (source organism: Trichodesmium erythraeum IMS101) of 73 nM.
With MIRRRNQIL, the figures for the Kd in the assay with HLA-A*02:01 [4] (setting [21]), with HLA-B*08:01 (setting [21]) and with HLA-B*08:02 (setting [21]) were at least 20 µM, 3 nM and 843 nM, respectively.
Regarding KLIEGTNIW, the values for the Kd in the assay with HLA-B*15:17 [2] (setting [22]), with HLA-B*58:01 (setting [22]) and with HLA-B*57:01 [3] (setting [22]) were 67.9 nM, 7.7 nM and 70.5 nM, respectively.

By Kd is commonly meant the free concentration of one partner at which half of the binding sites on the other are occupied at equilibrium, for simple one-to-one binding.
